The record followed here is article PMC6751199, “A synthetic metabolic network for physicochemical homeostasis” (Nature Communications, 2019).

The target in data set [1] is T1, ArcD2 (arginine/ornithine antiporter) (Lactococcus lactis, UniProt Q9CE19).
T1 construct: full length, cleavable C-terminal 10His tag (cleavage not described), expressed in L. lactis JP9000 (arcD1D2 deleted), purified in DDM, reconstituted in DOPE/DOPC/DOPG vesicles
T1 sequence (Q9CE19 1-497): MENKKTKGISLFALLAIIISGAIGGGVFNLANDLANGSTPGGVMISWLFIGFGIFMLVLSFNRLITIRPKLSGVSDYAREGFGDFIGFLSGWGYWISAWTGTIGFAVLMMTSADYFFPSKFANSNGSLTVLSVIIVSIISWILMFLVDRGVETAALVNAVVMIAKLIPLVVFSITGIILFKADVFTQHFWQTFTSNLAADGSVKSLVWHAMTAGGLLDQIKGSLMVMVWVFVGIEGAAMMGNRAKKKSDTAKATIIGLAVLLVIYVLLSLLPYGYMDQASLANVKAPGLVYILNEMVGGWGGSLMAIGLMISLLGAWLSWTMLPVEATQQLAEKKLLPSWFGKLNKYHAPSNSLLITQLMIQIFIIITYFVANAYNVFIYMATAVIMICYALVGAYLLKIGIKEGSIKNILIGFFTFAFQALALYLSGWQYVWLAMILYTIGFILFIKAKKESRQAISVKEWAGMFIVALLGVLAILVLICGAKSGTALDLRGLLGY
Briefly: […]-arginine uptake in ArcD2 proteoliposomes loaded with citrulline. It counts as biochemical. The note with it: 50 mM KPi pH 7.0, 30 °C; counter-substrate 10 µM 14C-arginine outside; 1 or 10 mM citrulline inside; electrogenic.

In data set [2] the target is T2, OpuA (ATP-driven glycine betaine transporter) (Lactococcus lactis, UniProt Q9RQ05).
T2 construct: gene busAB; ABC transporter complex purified by Ni-Sepharose in DDM (tag not described here), expressed in L. lactis, co-reconstituted with ArcD2 in lipid vesicles
T2 sequence (Q9RQ05 1-573): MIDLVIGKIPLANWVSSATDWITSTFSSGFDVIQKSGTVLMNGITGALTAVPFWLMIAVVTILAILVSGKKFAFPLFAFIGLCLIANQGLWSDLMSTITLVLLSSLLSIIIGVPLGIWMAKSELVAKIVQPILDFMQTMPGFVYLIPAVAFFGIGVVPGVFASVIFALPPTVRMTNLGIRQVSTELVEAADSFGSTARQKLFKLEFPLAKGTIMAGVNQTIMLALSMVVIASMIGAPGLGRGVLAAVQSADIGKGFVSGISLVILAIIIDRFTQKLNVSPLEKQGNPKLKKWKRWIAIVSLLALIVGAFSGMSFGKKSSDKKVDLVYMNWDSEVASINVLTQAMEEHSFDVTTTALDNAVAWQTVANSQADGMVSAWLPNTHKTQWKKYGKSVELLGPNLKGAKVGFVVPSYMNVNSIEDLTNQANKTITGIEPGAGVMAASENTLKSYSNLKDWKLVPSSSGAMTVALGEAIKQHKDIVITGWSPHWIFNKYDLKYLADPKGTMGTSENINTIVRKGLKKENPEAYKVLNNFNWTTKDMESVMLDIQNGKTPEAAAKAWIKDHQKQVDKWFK
T2 sequence (Q9RQ06 1-407 partner): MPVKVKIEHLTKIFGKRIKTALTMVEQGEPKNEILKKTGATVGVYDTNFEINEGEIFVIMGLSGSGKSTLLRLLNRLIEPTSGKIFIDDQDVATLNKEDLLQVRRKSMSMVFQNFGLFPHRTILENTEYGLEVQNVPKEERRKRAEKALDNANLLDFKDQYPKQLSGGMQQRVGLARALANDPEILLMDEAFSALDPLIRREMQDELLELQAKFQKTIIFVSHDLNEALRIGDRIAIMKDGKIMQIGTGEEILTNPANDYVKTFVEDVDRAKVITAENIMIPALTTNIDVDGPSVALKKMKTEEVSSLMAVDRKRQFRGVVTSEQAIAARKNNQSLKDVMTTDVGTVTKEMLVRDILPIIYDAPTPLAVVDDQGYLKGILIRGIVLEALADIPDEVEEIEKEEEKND
Kind of data set: […]-glycine betaine uptake in OpuA/ArcD2 vesicles. The note with it: 100 mM KPi pH 7.0, 250 mM KCl, 30 °C; ATP regenerated inside from arginine; 18 µM glycine betaine; labelled compound. It counts as biochemical.

In data set [3] the target is T1, ArcD2 (arginine/ornithine antiporter). Briefly: […]-arginine uptake in ArcD2 proteoliposomes. It is filed as biochemical. The note with it: 50 mM KPi pH 7.0, 30 °C; 10 µM arginine outside, counter-substrate L-ornithine inside; labelled compound.
Substrate in data set [4]: Nc1ncnc2c1ncn2[C@@H]1O[C@H](COP(=O)(O)OP(=O)(O)O)[C@@H](O)[C@H]1O
Kind of data set: ATP/ADP ratio by PercevalHR fluorescence, pH-corrected with pyranine. It counts as biochemical, Lactococcus lactis. The note with it: 50 mM KPi pH 7.0, 5 mM MgSO4, 30 °C, excess carbamoyl-phosphate.

Substrate in data set [5]: NC(=O)OP(=O)(O)O
The data set is described as above. The note with it: 50 mM KPi pH 7.0, 5 mM MgSO4, 30 °C, excess ADP. It counts as biochemical, Lactococcus lactis.

Substrate in data set [6]: NC(=O)OP(=O)(O)O
Briefly: purified protein. The note with it: 50 mM KPi pH 7.0, 30 °C, excess L-ornithine, back reaction (citrulline formation). It is filed as biochemical, Lactococcus lactis.

Substrate in data set [7]: NCCC[C@H](N)C(=O)O
Briefly: purified protein. The note with it: 50 mM KPi pH 7.0, 30 °C, excess carbamoyl-phosphate, back reaction (citrulline formation).

Substrate in data set [8]: N=C(N)NCCC[C@H](N)C(=O)O
Briefly: purified protein. The note with it: 50 mM KPi pH 7.0, 30 °C, 0-480 µM L-arginine. It counts as biochemical, Lactococcus lactis.

On to `NC(=O)NCCC[C@H](N)C(=O)O` [L-citrulline], for which, in data set [1], the “14C-arginine uptake in ArcD2 proteoliposomes loaded with citrulline” value is reported as “ArcD2 exchanges arginine for citrulline, albeit at a much lower rate”.

In the case of `C[N+](C)(C)CC(=O)[O-]` [glycine betaine], in data set [2], the “14C-glycine betaine uptake in OpuA/ArcD2 vesicles” value was “OpuA is constitutively active and imports glycine betaine at the expense of ATP”.

Take `N=C(N)NCCC[C@H](N)C(=O)O` [L-arginine]: the “14C-arginine uptake in ArcD2 proteoliposomes” value in data set [3] is reported as “demonstrated exchange of arginine for ornithine”.

B1: ArcC1 (carbamate kinase) (Lactococcus lactis subsp. lactis Il1403) (protein)
chain: MVKRIVVALGGNAILSKDPSAKAQKEALEVTAEQLMPLIKDNDRQMVVTHGNGPQVGNLLLQQLGSDSEKNPAMPLDTVGAMTQGEIGFWTVQAFTRAMANNGLEHYPVISAVTQTLVDENDPAFKNASKPIGPFYTEEQLPEIKKQFPDWELMEDAGRGYRRVVPSPKPLEIIEAKAFGPILESGSLLIASGGGGIPVIKDGKGYQGVEAVIDKDFSAAKLAEMVGADELLILTSGGDVYLNYGKENQVHLETVKVSEMRKYVDEERFAKGSMGPKVEAAVSFVERTGKTATITSLDNVENFVKSGSGTRIVP
notes: full length, cleavable N-terminal 10His tag (cleavage not described), expressed from pNZarcC1 in L. lactis NZ9000, Ni-Sepharose and Superdex 200
For B1, in data set [4], the Michaelis-Menten constant (Km) (as a rule, the substrate concentration at which the rate is half of its maximum) came to 1000 µM; the turnover number (kcat) – broadly, the number of substrate molecules converted per active site and unit of time at saturation – worked out at 310 s⁻¹. Moreover, in data set [5], the Km came out at 700 µM and the catalytic constant (kcat) is 420 s⁻¹.

B2: ArcB (ornithine transcarbamoylase) (Lactococcus lactis subsp. lactis Il1403) (protein)
chain: MTSPLITKAEVNSVFQGRSLLAEKDFTPAEINYLVDFGLHLKALKQQNIPHHYLEGKNIALLFAKTSTRTRAAFTTAAIDLGAHPEYLGANDIQLGIKESTEDTARVLGSMFDAIERRGFSQKEVEDLAKYSGVPVWNGLTDDWHPTQMIADFMTVKENFGHLKGLTLVYVGDGRNNMANSLIVTGSMLGVNVHIVAPDSLHPTKEVMDIANKFAEKSGAKPLATSNIEEGVKGANIIYSDVWVSMGESNWEERVKLLTPYRITMDMLKMTGNADNGQLIFMHCLPAFHDTETEYGKEIKEKYGLTEMEVTDEVFRSKYARQFEEAENRMHSIKAIMAATLGNLFIPAVPEDFK
notes: full length, cleavable N-terminal 6His tag (cleavage not described), expressed from pNZarcB in L. lactis NZ9000, Ni-Sepharose and Superdex 200
For the molecule B2, in data set [6], the Km amounted to 1900 µM and the kcat stood at 2900 s⁻¹. In addition, in data set [7], the Michaelis-Menten constant (Km) was found to be 700 µM and the kcat is 2300 s⁻¹.

B3: ArcA (arginine deiminase) (Lactococcus lactis subsp. lactis Il1403) (protein)
chain: MNNGINVNSEIGKLKSVLLHRPGAEVENITPDTMKQLLFDDIPYLKIAQKEHDFFAQTLRDNGAETVYIENLATEVFEKSSETKEEFLSHLLHEAGYRPGRTYDGLTEYLTSMSTKDMVEKIYAGVRKNELDIKRTALSDMAGSDAENYFYLNPLPNAYFTRDPQASMGVGMTINKMTFPARQPESLITEYVMANHPRFKDTPIWRDRNHTTRIEGGDELILNKTTVAIGVSERTSSKTIQNLAKELFANPLSTFDTVLAVEIPHNHAMMHLDTVFTMINHDQFTVFPGIMDGAGNINVFILRPGKDDEVEIEHLTDLKAALKKVLNLSELDLIECGAGDPIAAPREQWNDGSNTLAIAPGEIVTYDRNYVTVELLKEHGIKVHEILSSELGRGRGGARCMSQPLWREDL
notes: full length, cleavable N-terminal 6His tag (cleavage not described), expressed from pNZarcA in L. lactis NZ9000, Ni-Sepharose and Superdex 200
Consider B3, for which, in data set [8], the Michaelis constant (Km) is 26.5 µM and the kcat is 12 s⁻¹.
